# In EP4413993A1 (Dompe' Farmaceutici S.P.A., dated 2024):
# Where “and” joins values, the source holds several entries; their conditions need not be identical. Equal entries are not always repeated.
# Target: TrkB receptor on rat C6 glioma cells (rat, UniProt Q63604 32-821)
# Experiment: cell-based or functional assay
# TrkB receptor on rat C6 glioma cells, sequence (Q63604 32-821): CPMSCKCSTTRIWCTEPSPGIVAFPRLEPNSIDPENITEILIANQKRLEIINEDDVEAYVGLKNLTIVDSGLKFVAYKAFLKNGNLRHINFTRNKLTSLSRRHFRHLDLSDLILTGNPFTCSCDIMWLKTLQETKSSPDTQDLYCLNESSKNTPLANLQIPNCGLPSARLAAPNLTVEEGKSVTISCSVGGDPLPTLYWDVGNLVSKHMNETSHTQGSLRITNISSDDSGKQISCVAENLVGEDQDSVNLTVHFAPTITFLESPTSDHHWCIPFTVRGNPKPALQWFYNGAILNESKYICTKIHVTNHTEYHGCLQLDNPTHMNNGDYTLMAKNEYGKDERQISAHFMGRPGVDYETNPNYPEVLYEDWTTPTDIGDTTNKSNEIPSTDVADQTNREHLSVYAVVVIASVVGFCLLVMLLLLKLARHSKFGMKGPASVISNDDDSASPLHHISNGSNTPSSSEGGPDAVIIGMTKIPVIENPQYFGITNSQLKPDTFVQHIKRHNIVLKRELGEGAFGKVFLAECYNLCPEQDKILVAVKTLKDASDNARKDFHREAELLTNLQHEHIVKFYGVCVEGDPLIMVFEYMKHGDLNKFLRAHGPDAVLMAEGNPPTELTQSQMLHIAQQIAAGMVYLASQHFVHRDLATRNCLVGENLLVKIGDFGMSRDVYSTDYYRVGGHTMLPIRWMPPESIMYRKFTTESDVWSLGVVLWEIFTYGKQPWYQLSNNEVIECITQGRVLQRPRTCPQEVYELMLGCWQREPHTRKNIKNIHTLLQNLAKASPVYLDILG
binder,measurement,value
recombinant human brain-derived neurotrophic factor (BDNF) (ligand) HSDPARRGELSVCDSISEWVTAADKKTAVDMSGGTVTVLEKVPVSKGQLKQYFYETKCNPMGYTKEGCRGIDKRHWNSQCRTTQSYVRALTMDSKKRIGWRFIRIDTSCVCTLTIKRGR,"EC50, concentration of rhBDNF required to induce 50% proliferation of C6 cells (MTS assay, 48h)",~3 µg/mL and ~0.11 µM
